{"source": "paper PMC12084609", "about": "“Structural insights into small-molecule agonist recognition and activation of complement receptor C3aR” (The EMBO Journal, 2025)", "assay_type_in_all_cases": "cell-based", "key": {"C3aR I98^3.28A": {"biological_target": "T1, C3aR I98^3.28A (Homo sapiens, UniProt Q16581, I98A)", "T1 construct": "expressed in transfected cells; host or cells: HEK293T", "T1 sequence (Q16581 1-482 I98A)": "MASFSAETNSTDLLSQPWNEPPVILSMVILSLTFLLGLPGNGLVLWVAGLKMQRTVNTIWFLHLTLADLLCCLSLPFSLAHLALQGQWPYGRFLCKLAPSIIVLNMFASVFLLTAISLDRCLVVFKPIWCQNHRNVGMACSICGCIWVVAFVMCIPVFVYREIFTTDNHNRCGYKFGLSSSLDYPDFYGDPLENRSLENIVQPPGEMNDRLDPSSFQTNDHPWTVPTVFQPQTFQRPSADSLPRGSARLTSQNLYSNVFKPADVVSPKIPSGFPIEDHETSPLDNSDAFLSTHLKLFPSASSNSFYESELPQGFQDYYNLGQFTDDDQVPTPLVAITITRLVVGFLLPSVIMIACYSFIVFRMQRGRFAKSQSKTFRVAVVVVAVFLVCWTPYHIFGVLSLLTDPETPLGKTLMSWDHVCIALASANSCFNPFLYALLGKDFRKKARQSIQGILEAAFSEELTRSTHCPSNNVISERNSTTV", "assay": "GloSensor-based cAMP assay, C3aR mutant I98A", "details": "for cAMP response (% Forskolin): I983.28A, single replicates", "description": "(§1) HEK293T cells were seeded on 6-well plates (NEST) and transfected with pGlosensor™-22F plasmids (Promega) and pcDNA3.1 plasmids encoding C3aR or its mutants an with N-terminal FLAG tag. After 48 h, cells were detached with Accutase solution (Sigma-Aldrich) and washed with PBS, and resuspended in assay buffer (CO2-independent medium with 0.5 mg mL^−1D-luciferin). 100,000–200,000 cells were seeded on 96-well white bottom plates (SPL) and incubated at 37 °C for 45 min followed by 45 min incubation at room temperature. After 90 min of incubation, basal luminescence signals were recorded. In total, 25 μl of test ligand with various concentrations and 1 μM Forskolin (Sigma-Aldrich) were treated to the cells and luminescence signals were measured by Tristar 2 LB 942 multimode reader (Berthold). […] Relative luminescence unit (%) was calculated with the signal of wells treated with vehicle as 0% and the signal of wells treated with 1 μM Forskolin as 100% (DiRaddo et al, [2014]). Nonlinear regression was performed using a three-parameter logistic equation."}, "C3aR": {"biological_target": "C3aR (Homo sapiens, UniProt Q16581)", "sequence (Q16581 whole entry)": "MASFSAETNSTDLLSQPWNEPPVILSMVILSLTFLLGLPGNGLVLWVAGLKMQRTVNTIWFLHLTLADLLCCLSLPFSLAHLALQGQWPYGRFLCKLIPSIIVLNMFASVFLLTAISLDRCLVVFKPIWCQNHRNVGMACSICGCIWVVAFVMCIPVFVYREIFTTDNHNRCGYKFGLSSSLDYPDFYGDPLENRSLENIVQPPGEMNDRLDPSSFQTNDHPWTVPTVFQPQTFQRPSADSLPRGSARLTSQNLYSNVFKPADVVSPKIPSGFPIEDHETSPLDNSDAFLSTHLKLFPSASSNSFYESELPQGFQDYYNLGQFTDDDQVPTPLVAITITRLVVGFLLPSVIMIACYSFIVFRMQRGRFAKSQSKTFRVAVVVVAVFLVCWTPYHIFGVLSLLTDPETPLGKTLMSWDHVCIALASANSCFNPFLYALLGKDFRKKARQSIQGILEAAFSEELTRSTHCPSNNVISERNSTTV", "sequence (P63096 2-354 partner limits assumed)": "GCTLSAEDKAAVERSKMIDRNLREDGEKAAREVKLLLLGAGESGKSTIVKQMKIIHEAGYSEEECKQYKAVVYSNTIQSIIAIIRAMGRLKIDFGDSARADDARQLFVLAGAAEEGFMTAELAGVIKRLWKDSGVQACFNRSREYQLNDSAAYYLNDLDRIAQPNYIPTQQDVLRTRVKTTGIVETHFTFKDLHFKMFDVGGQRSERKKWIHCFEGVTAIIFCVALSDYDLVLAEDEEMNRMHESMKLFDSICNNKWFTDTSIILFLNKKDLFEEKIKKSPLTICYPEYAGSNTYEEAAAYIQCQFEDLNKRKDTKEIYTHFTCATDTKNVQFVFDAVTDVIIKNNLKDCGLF", "sequence (P62873 2-340 partner limits assumed)": "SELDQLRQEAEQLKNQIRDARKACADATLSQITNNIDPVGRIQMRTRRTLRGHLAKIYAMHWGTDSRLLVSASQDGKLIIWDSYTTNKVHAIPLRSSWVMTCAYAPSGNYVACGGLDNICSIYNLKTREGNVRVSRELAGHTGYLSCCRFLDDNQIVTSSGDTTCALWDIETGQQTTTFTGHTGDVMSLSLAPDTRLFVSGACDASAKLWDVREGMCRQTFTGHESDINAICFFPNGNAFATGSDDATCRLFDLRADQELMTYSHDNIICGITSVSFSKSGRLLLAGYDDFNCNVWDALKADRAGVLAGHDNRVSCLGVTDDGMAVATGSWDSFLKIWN", "sequence (P59768 2-68 partner limits assumed)": "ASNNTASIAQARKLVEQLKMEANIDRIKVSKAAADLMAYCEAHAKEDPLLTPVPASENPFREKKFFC", "assay": "Gi recruitment BRET assay (C3aR-eYFP / Gαi-Rluc8, HEK293T)", "details": "for ΔBRET (ligand-vehicle): individual replicates", "description": "HEK293T cells were seeded on 6-well plates (NEST) and transfected with pcDNA3.1 plasmids encoding C3aR-eYFP, Gαi-Rluc8, Gβ1, and Gγ2 with a ratio of 5:1:1:1. After 48 h, cells were harvested and resuspended with in PBS. Cells were treated with test ligand with various concentrations and seeded on 96-well white bottom plates (SPL). After 3 min incubation at 37 °C, coelenterazine h (Nanolight) was added with a final concentration of 10 μM. Luminescence and fluorescence were measured using a Tristar 2 LB 942 multimode reader (Berthold)."}, "C3aR Y393^6.51A": {"biological_target": "T2, C3aR Y393^6.51A (Homo sapiens, UniProt Q16581, Y393A)", "T2 construct": "expressed in transfected cells; host or cells: HEK293T", "T2 sequence (Q16581 1-482 Y393A)": "T1 sequence (Q16581 1-482 I98A) with A98I, Y393A", "assay": "GloSensor-based cAMP assay, C3aR mutant Y393A", "details": "for cAMP response (% Forskolin): Y3936.51A, single replicates", "description": "as §1"}, "C3aR I102^3.32A": {"biological_target": "T3, C3aR I102^3.32A (Homo sapiens, UniProt Q16581, I102A)", "T3 construct": "expressed in transfected cells; host or cells: HEK293T", "T3 sequence (Q16581 1-482 I102A)": "T1 sequence (Q16581 1-482 I98A) with A98I, I102A", "assay": "GloSensor-based cAMP assay, C3aR mutant I102A", "details": "for cAMP response (% Forskolin): I1023.32A, single replicates", "description": "as §1"}, "[1]": {"details": "Dunnett's multiple comparisons test, WT minus mutant"}}, "note": "Residue numbers refer to the chain shown, from its start. “And” between values parts separate entries of the source, which are not always exact repeats. Equal entries are not always repeated.", "data": [{"substance": "C3a: anaphylatoxin C3a, natural peptide ligand of C3aR (a 77-amino acid peptide), Sigma-Aldrich", "values": [{"measurement": "Mean Diff. of pIC50, WT vs. I98A", "setting": "C3aR I98^3.28A; [1]", "value": 0.113}, {"measurement": "ΔpIC50 ± SE of Diff.", "setting": "C3aR I98^3.28A; I98^3.28A relative to WT C3aR", "value": "-0.11 ± 0.02"}, {"measurement": "IC50", "setting": "C3aR I98^3.28A; I98^3.28A, dose-response plot, read-out: IC50", "value": 4.07, "unit": "nM"}, {"measurement": "pIC50 (Replicate)", "setting": "C3aR I98^3.28A; I98^3.28A, individual replicates", "value": "8.38 (2×) and 8.42 and 8.40 and 8.08 and 8.54 and 8.47"}, {"measurement": "pIC50 ± SEM (Mean)", "setting": "C3aR I98^3.28A; I98^3.28A, mean of independent experiments", "value": "8.38 ± 0.05 and 8.38"}, {"measurement": "cAMP response (% Forskolin)", "setting": "C3aR I98^3.28A; Log[C3a (M)] -7", "value": "12.31 % Forskolin and 10.90 % Forskolin and 9.84 % Forskolin and 8.89 % Forskolin and 11.38 % Forskolin and 5.37 % Forskolin and 7.43 % Forskolin"}, {"measurement": "cAMP response (% Forskolin)", "setting": "C3aR I98^3.28A; Log[C3a (M)] -8", "value": "27.29 % Forskolin and 21.82 % Forskolin and 20.14 % Forskolin and 14.26 % Forskolin and 42.67 % Forskolin and 12.53 % Forskolin and 15.24 % Forskolin"}, {"measurement": "cAMP response (% Forskolin)", "setting": "C3aR I98^3.28A; Log[C3a (M)] -9", "value": "88.79 % Forskolin and 95.53 % Forskolin and 90.20 % Forskolin and 95.03 % Forskolin and 96.77 % Forskolin and 78.73 % Forskolin and 85.71 % Forskolin"}, {"measurement": "cAMP response (% Forskolin)", "setting": "C3aR I98^3.28A; Log[C3a (M)] -10", "value": "99.83 % Forskolin and 101.03 % Forskolin and 99.65 % Forskolin and 94.56 % Forskolin and 95.76 % Forskolin and 97.03 % Forskolin and 93.13 % Forskolin"}, {"measurement": "cAMP response (% Forskolin)", "setting": "C3aR I98^3.28A; Log[C3a (M)] -11", "value": "97.32 % Forskolin and 101.48 % Forskolin and 99.97 % Forskolin and 96.12 % Forskolin and 97.86 % Forskolin and 93.68 % Forskolin and 92.51 % Forskolin"}, {"measurement": "cAMP response (% Forskolin)", "setting": "C3aR I98^3.28A; Log[C3a (M)] -12", "value": "95.26 % Forskolin and 98.35 % Forskolin and 96.71 % Forskolin and 98.06 % Forskolin and 93.96 % Forskolin and 97.55 % Forskolin and 101.79 % Forskolin"}, {"measurement": "pEC50 Value", "setting": "C3aR; Figure EV1A numerical data, curve fit", "value": 8.52}, {"measurement": "ΔBRET (ligand-vehicle)", "setting": "C3aR; Log[ligand (M)] -7", "value": "0.032 and 0.030 and 0.024 and 0.026"}, {"measurement": "ΔBRET (ligand-vehicle)", "setting": "C3aR; Log[ligand (M)] -8", "value": "0.029 and 0.025 and 0.020 and 0.022"}, {"measurement": "ΔBRET (ligand-vehicle)", "setting": "C3aR; Log[ligand (M)] -9", "value": "0.010 and 0.009 and 0.006 and 0.007"}, {"measurement": "ΔBRET (ligand-vehicle)", "setting": "C3aR; Log[ligand (M)] -10", "value": "0.00235 and 0.00134 and 0.00248 and 0.003"}, {"measurement": "ΔBRET (ligand-vehicle)", "setting": "C3aR; Log[ligand (M)] -11", "value": "0.000317 and 0.00116 and 0.00278 and 0.00544"}, {"measurement": "ΔBRET (ligand-vehicle)", "setting": "C3aR; Log[ligand (M)] -12", "value": "0.000368 and 0.000727 and 0.00354 and 0.006"}, {"measurement": "Span Value", "setting": "C3aR; span of ΔBRET curve, Figure EV1A numerical data", "value": 0.027}, {"measurement": "ΔpIC50 ± SE of Diff.", "setting": "C3aR Y393^6.51A; Y393^6.51A relative to WT C3aR", "value": "-1.34 ± 0.2"}, {"measurement": "IC50", "setting": "C3aR Y393^6.51A; Y393^6.51A, dose-response plot, read-out: IC50", "value": 35.3, "unit": "nM"}, {"measurement": "pIC50 ± SEM (Mean)", "setting": "C3aR Y393^6.51A; Y393^6.51A, mean of independent experiments", "value": 7.26}, {"measurement": "cAMP response (% Forskolin)", "setting": "C3aR Y393^6.51A; Log[C3a (M)] -7", "value": "22.11 % Forskolin and 35.95 % Forskolin and 17.03 % Forskolin and 39.16 % Forskolin and 16.00 % Forskolin and 10.74 % Forskolin"}, {"measurement": "cAMP response (% Forskolin)", "setting": "C3aR Y393^6.51A; Log[C3a (M)] -8", "value": "77.53 % Forskolin and 92.37 % Forskolin and 48.78 % Forskolin and 85.94 % Forskolin and 83.42 % Forskolin and 59.04 % Forskolin"}, {"measurement": "cAMP response (% Forskolin)", "setting": "C3aR Y393^6.51A; Log[C3a (M)] -9", "value": "100.98 % Forskolin and 105.20 % Forskolin and 100.01 % Forskolin and 92.90 % Forskolin and 94.02 % Forskolin and 86.75 % Forskolin"}, {"measurement": "cAMP response (% Forskolin)", "setting": "C3aR Y393^6.51A; Log[C3a (M)] -10", "value": "91.84 % Forskolin and 102.66 % Forskolin and 96.87 % Forskolin and 100.10 % Forskolin and 89.56 % Forskolin and 88.42 % Forskolin"}, {"measurement": "cAMP response (% Forskolin)", "setting": "C3aR Y393^6.51A; Log[C3a (M)] -11", "value": "102.78 % Forskolin and 104.06 % Forskolin and 100.84 % Forskolin and 95.25 % Forskolin and 103.11 % Forskolin and 88.56 % Forskolin"}, {"measurement": "cAMP response (% Forskolin)", "setting": "C3aR Y393^6.51A; Log[C3a (M)] -12", "value": "99.54 % Forskolin and 99.47 % Forskolin and 94.11 % Forskolin and 90.18 % Forskolin and 94.48 % Forskolin and 86.37 % Forskolin"}, {"measurement": "Mean Diff. of pIC50, WT vs. I102A", "setting": "C3aR I102^3.32A; [1]", "value": 0.080}, {"measurement": "ΔpIC50 ± SE of Diff.", "setting": "C3aR I102^3.32A; I102^3.32A relative to WT C3aR", "value": "-0.08 ± 0.06"}, {"measurement": "IC50", "setting": "C3aR I102^3.32A; I102^3.32A, dose-response plot, read-out: IC50", "value": 3.33, "unit": "nM"}, {"measurement": "pIC50 (Replicate)", "setting": "C3aR I102^3.32A; I102^3.32A, individual replicates", "value": "8.61 and 8.63 and 8.49"}, {"measurement": "pIC50 ± SEM (Mean)", "setting": "C3aR I102^3.32A; I102^3.32A, mean of independent experiments", "value": 8.47}, {"measurement": "cAMP response (% Forskolin)", "setting": "C3aR I102^3.32A; Log[C3a (M)] -7", "value": "12.51 % Forskolin and 13.87 % Forskolin and 13.89 % Forskolin and 16.73 % Forskolin"}, {"measurement": "cAMP response (% Forskolin)", "setting": "C3aR I102^3.32A; Log[C3a (M)] -8", "value": "18.09 % Forskolin and 20.55 % Forskolin and 21.20 % Forskolin and 43.71 % Forskolin"}, {"measurement": "cAMP response (% Forskolin)", "setting": "C3aR I102^3.32A; Log[C3a (M)] -9", "value": "79.37 % Forskolin and 75.76 % Forskolin and 87.66 % Forskolin and 96.25 % Forskolin"}, {"measurement": "cAMP response (% Forskolin)", "setting": "C3aR I102^3.32A; Log[C3a (M)] -10", "value": "100.22 % Forskolin and 97.06 % Forskolin and 101.20 % Forskolin and 92.74 % Forskolin"}, {"measurement": "cAMP response (% Forskolin)", "setting": "C3aR I102^3.32A; Log[C3a (M)] -11", "value": "101.22 % Forskolin and 97.60 % Forskolin and 96.34 % Forskolin and 96.47 % Forskolin"}, {"measurement": "cAMP response (% Forskolin)", "setting": "C3aR I102^3.32A; Log[C3a (M)] -12", "value": "100.09 % Forskolin and 99.44 % Forskolin and 103.06 % Forskolin and 100.29 % Forskolin"}]}]}
